The source of these data is US20170368132A1 (published 2017).

Test [1] has as its target T1, Rad51 (S208L; A209E; M210A) (human, UniProt Q06609 1-339).
T1 construct: Human RAD51 mutant tested by Y2H; also called human RAD51 S208L A209E M210A
T1 chain: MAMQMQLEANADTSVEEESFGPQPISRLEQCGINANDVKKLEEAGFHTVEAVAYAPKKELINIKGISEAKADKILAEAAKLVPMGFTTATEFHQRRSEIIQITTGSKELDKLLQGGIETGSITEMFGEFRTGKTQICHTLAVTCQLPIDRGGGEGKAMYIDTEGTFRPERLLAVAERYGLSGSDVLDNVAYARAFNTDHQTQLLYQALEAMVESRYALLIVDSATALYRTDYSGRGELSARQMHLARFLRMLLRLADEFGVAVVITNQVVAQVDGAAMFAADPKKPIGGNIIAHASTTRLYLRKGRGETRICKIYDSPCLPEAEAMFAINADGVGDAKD
As to the kind of experiment: yeast two-hybrid, human RAD51 mutant. The procedure: (§1) The ability of peptides to bind human RAD51 with various mutations was then tested by Y2H assay. […] While mutations affecting BRCA2 binding had no effect on peptide binding, mutations that affected RAD51-AP1 binding did disrupt peptide binding. As these mutations were at residues 202, 205, and 206, they were consistent with the previous fusion data showing binding somewhere in the 190-218 region, and indicated the peptide SEQ ID NO.:5 contacts at least residues 202, 205, and 206 of RAD51.

The target in test [2] is T2, Rad51 (Q202R, Y205D, Q206A) (human, UniProt Q06609 1-339).
T2 construct: Human RAD51 mutant tested by Y2H; also called human RAD51 Q202R Y205D Q206A
T2 chain: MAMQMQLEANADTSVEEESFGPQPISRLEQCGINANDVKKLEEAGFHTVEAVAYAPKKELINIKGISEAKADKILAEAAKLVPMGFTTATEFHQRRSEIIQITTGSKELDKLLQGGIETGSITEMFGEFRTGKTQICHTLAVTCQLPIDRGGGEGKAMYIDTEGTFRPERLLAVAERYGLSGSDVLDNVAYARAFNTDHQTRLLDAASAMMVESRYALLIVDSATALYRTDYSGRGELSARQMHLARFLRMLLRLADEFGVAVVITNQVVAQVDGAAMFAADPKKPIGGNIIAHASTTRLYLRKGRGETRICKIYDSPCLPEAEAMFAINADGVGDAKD
As to the kind of experiment: yeast two-hybrid, human RAD51 mutant. The procedure:
as §1

In test [3] the target is T3, S. cerevisiae Rad51 (S. cerevisiae, UniProt P25454 1-400, limits assumed).
T3 construct: Y2H fusion in yeast
T3 sequence (looked up): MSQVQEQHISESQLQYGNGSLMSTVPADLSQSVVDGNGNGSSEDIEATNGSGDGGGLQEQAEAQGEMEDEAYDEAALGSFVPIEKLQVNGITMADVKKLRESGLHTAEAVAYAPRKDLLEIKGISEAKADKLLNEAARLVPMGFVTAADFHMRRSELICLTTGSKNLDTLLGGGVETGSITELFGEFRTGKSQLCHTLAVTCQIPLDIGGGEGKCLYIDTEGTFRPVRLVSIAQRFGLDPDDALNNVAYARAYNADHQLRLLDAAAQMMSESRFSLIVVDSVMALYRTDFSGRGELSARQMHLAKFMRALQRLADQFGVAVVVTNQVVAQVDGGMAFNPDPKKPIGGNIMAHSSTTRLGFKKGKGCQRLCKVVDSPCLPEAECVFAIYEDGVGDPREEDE
As to the kind of experiment: yeast two-hybrid, growth on -ADE -HIS. The procedure:
(§2) RAD51-binding peptides were tested for ability to bind RAD51 of several different species using a “conventional” Y2H assay, where interaction between the two-hybrid pair drove expression of ADE2 and HIS genes. In this Y2H assay the two-hybrid pair was RAD51 and the compound 5 peptide sequence (SEQ ID NO.:5), so that cells having the interaction would survive (+) and cells not having the interaction would die (−) on selective media (−ADE, −HIS).

Test [4] concerns the target T4, H. sapiens Rad51 (H. sapiens, UniProt Q06609 1-339).
T4 construct: Expressed in yeast as a two-hybrid fusion; also called human RAD51
T4 sequence: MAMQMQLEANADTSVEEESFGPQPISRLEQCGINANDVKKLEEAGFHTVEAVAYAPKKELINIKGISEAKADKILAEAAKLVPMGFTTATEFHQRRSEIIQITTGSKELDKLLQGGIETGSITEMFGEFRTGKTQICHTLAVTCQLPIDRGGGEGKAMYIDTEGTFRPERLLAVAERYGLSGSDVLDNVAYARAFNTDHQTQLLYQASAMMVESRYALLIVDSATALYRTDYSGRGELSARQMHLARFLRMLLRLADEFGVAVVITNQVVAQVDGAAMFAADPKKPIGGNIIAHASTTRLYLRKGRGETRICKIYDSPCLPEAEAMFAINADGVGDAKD
As to the kind of experiment: yeast two-hybrid, growth on -ADE -HIS. The procedure: as §2

For test [5], the target named is T5, G. gallus Rad51 (G. gallus, UniProt P37383 1-339, limits assumed).
T5 construct: Y2H fusion in yeast
T5 sequence (looked up): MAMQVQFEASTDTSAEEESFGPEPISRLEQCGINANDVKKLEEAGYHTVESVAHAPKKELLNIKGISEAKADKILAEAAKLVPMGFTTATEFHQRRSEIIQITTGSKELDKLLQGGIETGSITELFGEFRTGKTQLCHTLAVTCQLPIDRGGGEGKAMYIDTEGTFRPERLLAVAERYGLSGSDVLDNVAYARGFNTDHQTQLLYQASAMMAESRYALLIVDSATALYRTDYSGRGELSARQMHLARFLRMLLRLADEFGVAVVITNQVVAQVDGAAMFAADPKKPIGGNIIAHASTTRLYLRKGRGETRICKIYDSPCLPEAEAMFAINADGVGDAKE
As to the kind of experiment: yeast two-hybrid, growth on -ADE -HIS. The procedure:
as §2

The target in test [6] is T6, S. pombe Rad51 (S. pombe, UniProt P36601 1-365, limits assumed).
T6 construct: Y2H fusion in yeast
T6 sequence (looked up): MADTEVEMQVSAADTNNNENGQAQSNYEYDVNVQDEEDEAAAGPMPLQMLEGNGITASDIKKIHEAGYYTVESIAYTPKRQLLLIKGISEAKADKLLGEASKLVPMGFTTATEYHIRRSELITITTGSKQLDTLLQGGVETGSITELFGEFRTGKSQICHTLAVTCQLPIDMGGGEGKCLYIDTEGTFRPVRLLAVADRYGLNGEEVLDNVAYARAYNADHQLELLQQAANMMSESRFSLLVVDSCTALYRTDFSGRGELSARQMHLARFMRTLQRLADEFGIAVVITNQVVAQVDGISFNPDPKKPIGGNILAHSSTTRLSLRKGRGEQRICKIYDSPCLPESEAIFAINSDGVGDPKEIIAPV
The experiment in a line: yeast two-hybrid, growth on -ADE -HIS. The procedure:
as §2

Take KRRRRRRRKRLGVRLRVSRML [compound 5 peptide sequence (SEQ ID NO.:5)]: the binding result in test [1] is given as “binds”; in test [2], “no binding”; in test [3], “no binding”; in test [4] it was “binds”; in test [5], “binds”; in test [6], “binds”.
